From the RNAGym collection of RNA variant scans (doi:10.1093/molbev/msab373) come the findings set out here.

First the molecules themselves.
B1: Azoarcus group I ribozyme (parent)
chain: GUGCCUUGCGCCGGGAAACCACGCAAGGGAUGGUGUCAAAUUCGGCGAAACCUAAGCGCCCGCCCGGGCGUAUGGCAACGCCGAGCCAAGCUUCGGCGCCUGCGCCGAUGAAGGUGUAGAGACUAGACGGCACCCACCUAAGGCAAACGCUAUGGUGAAGGCAUAGUCCAGGGAGUGGCGAAAGUCACACAAACCGG

This data set covers variants of B1. Briefly: reverse-splicing fitness (ratio to wild type); higher = more active; in vitro selection; Mg2+ level not given. In outline:
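An in vitro group I ribozyme library with randomized positions was T7-transcribed and gel-purified. In triplicate, 10 pmol RNA in EPPS pH 7.5 was reacted with 50 pmoles of a 30-nt RNA substrate for 1 h at 37 °C across several added MgCl2 levels (1–48 mM), then stopped with EDTA. Products were reverse transcribed from a substrate-complementary primer, PCR-amplified and sequenced (HiSeq 4000). Fitness is a variant's read proportion after selection over that before, normalised to wild type.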
Regarding GUGCCUUGCGCCGGGAAACCACGCAAGGGAUGGUGUCAAAUUCGGCGAAACCUAAGCGCCCGCCCGGGCGUAUGGCAACGCCGAGCCAAGCUUCGGCGCCUGCGCCGAUGCAGGUGUAGGGACUAGACGGCACCCACCUAAGGCUAACGAUAUGGUGAAGGCAUAGUCAAGGGAGGGGCGAAAGUCACACAAACCGG, the reverse-splicing fitness stood at 0.00497. With GUGCCUUGCGCCGGGAAACCACGCAAGGGAUGGUGUCAAAUUCGGCGAAACCUAAGCGCCCGCCCGGGCGUAUGGCAACGCCGAGCCAAGCUUCGGCGCCUGCGCCGAUGCAGGUGUAGGGACUAGACGGCACCCACCUAAGGCUAACGAUAUGGUGAAGGCAUAGUCAAGGGAGCGGCGAAAGUCACACAAACCGG, the reverse-splicing fitness is 0.011.

Regarding GUGCCUUGCGCCGGGAAACCACGCAAGGGAUGGUGUCAAAUUCGGCGAAACCUAAGCGCCCGCCCGGGCGUAUGGCAACGCCGAGCCAAGCUUCGGCGCCUGCGCCGAUGCAGGUGUAGGGACUAGACGGCACCCACCUAAGGCUAACGAUAUGGUGAAGGCAUAGUCAAGGGAGAGGCGAAAGUCACACAAACCGG, the reverse-splicing fitness came out at 0.0109.

Regarding GUGCCUUGCGCCGGGAAACCACGCAAGGGAUGGUGUCAAAUUCGGCGAAACCUAAGCGCCCGCCCGGGCGUAUGGCAACGCCGAGCCAAGCUUCGGCGCCUGCGCCGAUGCAGGUGUAGGGACUAGACGGCACCCACCUAAGGCUAACGAUAUGGUGAAGGCAUAGUCUAGGGAGUGGCGAAAGUCACACAAACCGG, the reverse-splicing fitness came to 0.018. Turning to GUGCCUUGCGCCGGGAAACCACGCAAGGGAUGGUGUCAAAUUCGGCGAAACCUAAGCGCCCGCCCGGGCGUAUGGCAACGCCGAGCCAAGCUUCGGCGCCUGCGCCGAUGCAGGUGUAGGGACUAGACGGCACCCACCUAAGGCUAACGAUAUGGUGAAGGCAUAGUCAAGGGAGUGGCGAAAGUCACACAAACCGG, the reverse-splicing fitness came to 0.0145.

On to GUGCCUUGCGCCGGGAAACCACGCAAGGGAUGGUGUCAAAUUCGGCGAAACCUAAGCGCCCGCCCGGGCGUAUGGCAACGCCGAGCCAAGCUUCGGCGCCUGCGCCGAUGCAGGUGUAGGGACUAGACGGCACCCACCUAAGGCUAACGAUAUGGUGAAGGCAUAGUCGAGGGAGUGGCGAAAGUCACACAAACCGG, for which the reverse-splicing fitness turned out to be 0.0221.

Take GUGCCUUGCGCCGGGAAACCACGCAAGGGAUGGUGUCAAAUUCGGCGAAACCUAAGCGCCCGCCCGGGCGUAUGGCAACGCCGAGCCAAGCUUCGGCGCCUGCGCCGAUGCAGGUGUAGGGACUAGACGGCACCCACCUAAGGCUAACGAUAUGGUGAAGGCAUAGUCGAGGGAGAGGCGAAAGUCACACAAACCGG: the reverse-splicing fitness is 0.0123. The same measure for GUGCCUUGCGCCGGGAAACCACGCAAGGGAUGGUGUCAAAUUCGGCGAAACCUAAGCGCCCGCCCGGGCGUAUGGCAACGCCGAGCCAAGCUUCGGCGCCUGCGCCGAUGCAGGUGUAGGGACUAGACGGCACCCACCUAAGGCUAACGAUAUGGUGAAGGCAUAGUCGAGGGAGGGGCGAAAGUCACACAAACCGG: 0.00467; for GUGCCUUGCGCCGGGAAACCACGCAAGGGAUGGUGUCAAAUUCGGCGAAACCUAAGCGCCCGCCCGGGCGUAUGGCAACGCCGAGCCAAGCUUCGGCGCCUGCGCCGAUGCAGGUGUAGGGACUAGACGGCACCCACCUAAGGCUAACGAUAUGGUGAAGGCAUAGUCGAGGGAGCGGCGAAAGUCACACAAACCGG: 0.0176.

Take GUGCCUUGCGCCGGGAAACCACGCAAGGGAUGGUGUCAAAUUCGGCGAAACCUAAGCGCCCGCCCGGGCGUAUGGCAACGCCGAGCCAAGCUUCGGCGCCUGCGCCGAUGCAGGUGUAGGGACUAGACGGCACCCACCUAAGGCUAACGGUAUGGUGAAGGCAUAGUCUAGGGAGGGGCGAAAGUCACACAAACCGG: the reverse-splicing fitness was 0.00442. GUGCCUUGCGCCGGGAAACCACGCAAGGGAUGGUGUCAAAUUCGGCGAAACCUAAGCGCCCGCCCGGGCGUAUGGCAACGCCGAGCCAAGCUUCGGCGCCUGCGCCGAUGCAGGUGUAGGGACUAGACGGCACCCACCUAAGGCUAACGGUAUGGUGAAGGCAUAGUCUAGGGAGCGGCGAAAGUCACACAAACCGG: the reverse-splicing fitness is 0.0151. Turning to GUGCCUUGCGCCGGGAAACCACGCAAGGGAUGGUGUCAAAUUCGGCGAAACCUAAGCGCCCGCCCGGGCGUAUGGCAACGCCGAGCCAAGCUUCGGCGCCUGCGCCGAUGCAGGUGUAGGGACUAGACGGCACCCACCUAAGGCUAACGGUAUGGUGAAGGCAUAGUCUAGGGAGAGGCGAAAGUCACACAAACCGG, the reverse-splicing fitness turned out to be 0.0111. In the case of GUGCCUUGCGCCGGGAAACCACGCAAGGGAUGGUGUCAAAUUCGGCGAAACCUAAGCGCCCGCCCGGGCGUAUGGCAACGCCGAGCCAAGCUUCGGCGCCUGCGCCGAUGCAGGUGUAGGGACUAGACGGCACCCACCUAAGGCUAACGGUAUGGUGAAGGCAUAGUCCAGGGAGUGGCGAAAGUCACACAAACCGG, the reverse-splicing fitness turned out to be 0.0193. For GUGCCUUGCGCCGGGAAACCACGCAAGGGAUGGUGUCAAAUUCGGCGAAACCUAAGCGCCCGCCCGGGCGUAUGGCAACGCCGAGCCAAGCUUCGGCGCCUGCGCCGAUGCAGGUGUAGGGACUAGACGGCACCCACCUAAGGCUAACGGUAUGGUGAAGGCAUAGUCGAGGGAGAGGCGAAAGUCACACAAACCGG, the reverse-splicing fitness is 0.00713. The figure for GUGCCUUGCGCCGGGAAACCACGCAAGGGAUGGUGUCAAAUUCGGCGAAACCUAAGCGCCCGCCCGGGCGUAUGGCAACGCCGAGCCAAGCUUCGGCGCCUGCGCCGAUGCAGGUGUAGGGACUAGACGGCACCCACCUAAGGCUAACGGUAUGGUGAAGGCAUAGUCGAGGGAGCGGCGAAAGUCACACAAACCGG is 0.00574.
